In US20070014786A1 (RINAT NEUROSCIENCE, published 2007) one finds Kd data, which are given here for 2 molecules.

The target of one assay is rat trkC (rat, UniProt Q03351 32-429, limits assumed). Put plainly: BIAcore (SPR); format not stated; rat trkC. In general terms: SPR reads the build-up and loss of mass on a sensor chip optically.
The target in assay [1] is T1, human trkC (human, UniProt Q16288 32-429, limits assumed).
T1 construct: also called htrkC
Kind of assay: BIAcore (SPR); format not stated; human trkC.

Assay [2] addresses T1, human trkC. Kind of assay: BIAcore (SPR); format not stated.

B1: humanized anti-trkC agonist antibody A5 (antibody, V domains shown)
VH: QVQLVQSGAEVKKPGASVKVSCKASGYTFTSYRIHWVRQAPGQGLEWMGEIYPSNARTNYNEKFKSRVTMTRDTSTSTVYMELSSLRSEDTAVYYCARKYYYGNTRRSWYFDVWGQGTTVTVS
VL: DIQMTQSPSSLSASVGDRVTITCRASESIDNYGISFLAWYQQKPGKAPKLLIYAASNRGSGVPSRFSGSGSGTDFTFTISSLQPEDIATYYCQQSKTVPRTFGQGTKLEIKR
By Kd is commonly meant a measure of binding affinity in units of concentration. Low readings indicate tighter binding, high ones weaker binding. On to B1, for which the results for the equilibrium dissociation constant (Kd) with rat trkC and with human trkC [1] were around 19 nM and around 0.28 nM, respectively.

B2: mouse anti-trkC agonist monoclonal antibody 2256 (antibody, V domains shown)
VH: QVQLQQPGAELVKPGASVKLSCKASGYTFTSYWMHWVKQRPGQGLEWIGEIYPSNGRTNYNEKFKSKATLTVDKSSSTAYMQLSSLTSEDSAVYYCARKYYYGNSYRSWYFDVWGAGTTLTVS
VL: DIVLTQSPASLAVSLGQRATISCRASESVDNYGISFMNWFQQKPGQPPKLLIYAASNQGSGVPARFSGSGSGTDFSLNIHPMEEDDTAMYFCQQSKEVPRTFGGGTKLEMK
Take B2: in the assay with human trkC [2], the Kd was around 40 nM.
